Test results published in paper PMC8431494.

Target: BST-2 with N-terminal SmBiT (UniProt Q10589)
Experiment: split reporter (BiFC, NanoBiT); HEK293T cells in 96-well plates co-transfected 1:1 with plasmids for the Vpu and BST-2 LgBiT/SmBiT fusions; Nano-Glo Live Cell Substrate added, luminescence read in live cells; negative control HaloTag with SmBiT

Vpu with C-terminal LgBiT, sequence (P05919 whole entry): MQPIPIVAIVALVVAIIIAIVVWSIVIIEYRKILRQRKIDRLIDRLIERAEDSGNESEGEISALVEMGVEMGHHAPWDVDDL
UniProt Q10589, sequence (Q10589 1-161): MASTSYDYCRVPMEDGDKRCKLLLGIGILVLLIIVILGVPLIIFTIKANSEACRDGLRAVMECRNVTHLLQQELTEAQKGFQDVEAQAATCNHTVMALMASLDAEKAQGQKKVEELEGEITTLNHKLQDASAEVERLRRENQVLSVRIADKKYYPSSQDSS

Substance: Vpu with C-terminal LgBiT (from UniProt P05919 1-82) (natural protein)
- fold luminescence over control 15 min after adding substrate: 100 fold
- fold luminescence over control (Vpu with C-terminal LgBiT and HaloTag with SmBiT): 95 fold
